{"source": "paper doi:10.1101/2024.05.16.594476", "key": {"[1]": {"target": "Mtb PhoP, phosphorylated with acetyl phosphate (AcP) (Mycobacterium tuberculosis) (UniProt P71814)", "assay": "[…]"}, "[2]": {"target": "Mtb PhoP, phosphorylated with acetyl phosphate (AcP) (Mycobacterium tuberculosis) (UniProt P71814)", "assay": "cryo-EM structure"}, "[3]": {"target": "Mtb PhoP, phosphorylated with acetyl phosphate (AcP) (Mycobacterium tuberculosis) (UniProt P71814)", "assay": "[…]", "remark": "listed apart in the source"}}, "note": "Values joined by “and” are separate entries in the source; they are usually repeats but may differ in a detail not shown here. Equal values may be shown once.", "data": [{"substance": "Mtb PhoP, phosphorylated with acetyl phosphate (AcP) (from UniProt P71814 1-247) (natural protein)", "values": [{"measurement": "stoichiometry N", "setting": "[1]", "value": 2}, {"measurement": "stoichiometry N", "setting": "[2]", "value": 2}, {"measurement": "stoichiometry N", "setting": "[3]", "value": "6 and 4"}]}]}
